Reference: the supplement of paper PMC10567573

B1: PSD2 (parent)
chain: PLMGETQERERVLTHFSRRYCQCN
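Note: lentivirally expressed fusions sorted by FACS into six bins by GFP to DsRed ratio, PSI derived from sequencing read proportions per bin multiplied by bin number.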

Variants of: B1
Experiment: protein stability index of a GFP-peptide fusion (GPS, HEK-293T) (PSI 1-6); higher = more stable
Conditions: c terminus: a fixed tail appended
PLMGETQERERVLTHFSREYCQCN showed a protein stability index of 3.74.
Work on PLMGETQERERVLTHFSRAYCQCN yielded a protein stability index of 2.98.
PLMGETQERERVLTHFSRNYCQCN showed a protein stability index of 3.54.
For PLMGETQERERVLTHFSRSYCQCN, the protein stability index was 3.28.
With PLMGETQERERVLTHFVRRYCQCN the protein stability index was 2.44.
Variant PLMGETQERERVLTHFIRRYCQCN has a protein stability index of 1.49.
PLMGETQERERVLTHFMRRYCQCN showed a protein stability index of 2.51.
PLMGETQERERVLTHFARRYCQCN gave a protein stability index of 2.11.
PLMGETQERERVLTHFNRRYCQCN gave a protein stability index of 3.15.
For ELMGETQERERVLTHFSRRYCQCN, the protein stability index was 2.79.
Work on ILMGETQERERVLTHFSRRYCQCN yielded a protein stability index of 2.04.
For WLMGETQERERVLTHFSRRYCQCN, the protein stability index was 2.3.
Variant PLMGETLERERVLTHFSRRYCQCN has a protein stability index of 2.61.
Variant PLMGETPERERVLTHFSRRYCQCN has a protein stability index of 2.77.
PLMGETTERERVLTHFSRRYCQCN showed a protein stability index of 2.69.
For PLMGETQRRERVLTHFSRRYCQCN, the protein stability index was 2.78.
In the case of PLMGETQWRERVLTHFSRRYCQCN, the protein stability index is reported as 1.65.
Variant PLMGETQQRERVLTHFSRRYCQCN has a protein stability index of 3.54.
Work on PLMGMTQERERVLTHFSRRYCQCN yielded a protein stability index of 1.87.
Variant PLMGTTQERERVLTHFSRRYCQCN has a protein stability index of 2.09.
PLMGSTQERERVLTHFSRRYCQCN showed a protein stability index of 2.66.
With PLMGQTQERERVLTHFSRRYCQCN the protein stability index was 2.07.
For PLMGYTQERERVLTHFSRRYCQCN, the protein stability index was 1.83.
PLMGHTQERERVLTHFSRRYCQCN gave a protein stability index of 2.77.
In the case of PLMGATQERERVLTHFSRRYCQCN, the protein stability index is reported as 2.78.
Variant PLMGETQERERVLTHFSRRYAQCN has a protein stability index of 3.46.
For PLMGETQERERVLTHFSRRYIQCN, the protein stability index was 3.06.
PLMGETQERERVLGHFSRRYCQCN showed a protein stability index of 2.83.
With PLMGETQERERVLLHFSRRYCQCN the protein stability index was 2.02.
PLMGETQERERVLNHFSRRYCQCN gave a protein stability index of 2.63.
Variant PLMGETQERERVLAHFSRRYCQCN has a protein stability index of 2.62.
Work on PLMGETQERERVLTHYSRRYCQCN yielded a protein stability index of 2.99.
In the case of PLMGETQERERVLTHISRRYCQCN, the protein stability index is reported as 2.67.
Work on PLMAETQERERVLTHFSRRYCQCN yielded a protein stability index of 3.3.
Variant PLMDETQERERVLTHFSRRYCQCN has a protein stability index of 3.24.
With PLMTETQERERVLTHFSRRYCQCN the protein stability index was 3.86.
In the case of PLMNETQERERVLTHFSRRYCQCN, the protein stability index is reported as 2.92.
Variant PLMKETQERERVLTHFSRRYCQCN has a protein stability index of 2.6.
With PLMGETQEREPVLTHFSRRYCQCN the protein stability index was 3.02.
PLMGETQERENVLTHFSRRYCQCN gave a protein stability index of 3.14.
Work on PLMGETQEREIVLTHFSRRYCQCN yielded a protein stability index of 2.35.
In the case of PLMGETQERERVLTHFSRRYCYCN, the protein stability index is reported as 2.08.
Work on PLMGETQERERVLTHFSRRYCECN yielded a protein stability index of 3.96.
PLMGETQERERVLTHFSRRYCTCN gave a protein stability index of 3.08.
Variant PLMGETQERERVLTHFSRRYCACN has a protein stability index of 3.55.
With PLMGETQERCRVLTHFSRRYCQCN the protein stability index was 2.92.
In the case of PLMGETQERDRVLTHFSRRYCQCN, the protein stability index is reported as 2.44.
PLMGETQERARVLTHFSRRYCQCN showed a protein stability index of 2.07.
PLMGETQERYRVLTHFSRRYCQCN gave a protein stability index of 1.73.
PLMGETQERVRVLTHFSRRYCQCN gave a protein stability index of 2.31.
In the case of PLMGEGQERERVLTHFSRRYCQCN, the protein stability index is reported as 2.84.
In the case of PLMGEMQERERVLTHFSRRYCQCN, the protein stability index is reported as 2.52.
Work on PLMGEHQERERVLTHFSRRYCQCN yielded a protein stability index of 3.15.
PLMGERQERERVLTHFSRRYCQCN showed a protein stability index of 2.95.
With PLMGETQERERVLTPFSRRYCQCN the protein stability index was 2.6.
For PLMGETQERERVLTMFSRRYCQCN, the protein stability index was 2.56.
Work on PLMGETQERERVLTRFSRRYCQCN yielded a protein stability index of 2.74.
Variant PLMGETQERERVLTCFSRRYCQCN has a protein stability index of 2.9.
PLMGETQERERVLTYFSRRYCQCN gave a protein stability index of 2.44.
Variant PLMGETQERERVCTHFSRRYCQCN has a protein stability index of 4.49.
PLMGETQERERVWTHFSRRYCQCN gave a protein stability index of 2.7.
Variant PLMGETQERERVETHFSRRYCQCN has a protein stability index of 3.6.
PLMGETQERERVQTHFSRRYCQCN gave a protein stability index of 3.5.
Variant PLMGETQERERVGTHFSRRYCQCN has a protein stability index of 3.52.
Variant PLMGETQERERVMTHFSRRYCQCN has a protein stability index of 3.3.
PLMGETQERERVLTHFSRRCCQCN gave a protein stability index of 3.91.
Variant PLMGETQERERVLTHFSRRMCQCN has a protein stability index of 2.69.
Work on PLMGETQERERVLTHFSRRYCQCQ yielded a protein stability index of 2.88.
With PLMGETQERERVLTHFSRRYCQCS the protein stability index was 3.38.
With PLMGETQERERVLTHFSRRYCQCD the protein stability index was 3.23.
Work on PLMGETQERERVLTHFSRRYCQCH yielded a protein stability index of 3.21.
Variant PLMGETQERERVLTHFSRRYCQGN has a protein stability index of 3.56.
Work on PLMGETQERERVLTHFSRRYCQNN yielded a protein stability index of 4.07.
PLMGETQERERVLTHFSRRYCQAN gave a protein stability index of 4.01.
With PLMGETQERERVLTHFSRRYCQIN the protein stability index was 2.99.
PLMGETQERERVLTHFSFRYCQCN showed a protein stability index of 1.99.
PLMGETQERERVLTHFSVRYCQCN gave a protein stability index of 2.02.
In the case of PLMGETQERERVLTHFSARYCQCN, the protein stability index is reported as 3.49.
PLMGETQERERVLTHFSWRYCQCN showed a protein stability index of 1.79.
PLMGETQEAERVLTHFSRRYCQCN showed a protein stability index of 3.5.
In the case of PLMGETQEWERVLTHFSRRYCQCN, the protein stability index is reported as 1.46.
PLMGETQEIERVLTHFSRRYCQCN showed a protein stability index of 2.07.
PLMGETQEKERVLTHFSRRYCQCN showed a protein stability index of 3.21.
In the case of PLMGETQEMERVLTHFSRRYCQCN, the protein stability index is reported as 2.16.
In the case of PGMGETQERERVLTHFSRRYCQCN, the protein stability index is reported as 4.03.
PWMGETQERERVLTHFSRRYCQCN gave a protein stability index of 2.58.
PNMGETQERERVLTHFSRRYCQCN gave a protein stability index of 3.42.
With PEMGETQERERVLTHFSRRYCQCN the protein stability index was 3.91.
With PLAGETQERERVLTHFSRRYCQCN the protein stability index was 3.72.
In the case of PLPGETQERERVLTHFSRRYCQCN, the protein stability index is reported as 2.72.
PLKGETQERERVLTHFSRRYCQCN gave a protein stability index of 3.13.
With PLLGETQERERVLTHFSRRYCQCN the protein stability index was 3.15.
PLSGETQERERVLTHFSRRYCQCN showed a protein stability index of 2.97.
With PLWGETQERERVLTHFSRRYCQCN the protein stability index was 2.79.
